target: T1, AtCyp59 full-length (Arabidopsis thaliana, UniProt Q6Q151 1-506); experiment: EMSA
T1 sequence: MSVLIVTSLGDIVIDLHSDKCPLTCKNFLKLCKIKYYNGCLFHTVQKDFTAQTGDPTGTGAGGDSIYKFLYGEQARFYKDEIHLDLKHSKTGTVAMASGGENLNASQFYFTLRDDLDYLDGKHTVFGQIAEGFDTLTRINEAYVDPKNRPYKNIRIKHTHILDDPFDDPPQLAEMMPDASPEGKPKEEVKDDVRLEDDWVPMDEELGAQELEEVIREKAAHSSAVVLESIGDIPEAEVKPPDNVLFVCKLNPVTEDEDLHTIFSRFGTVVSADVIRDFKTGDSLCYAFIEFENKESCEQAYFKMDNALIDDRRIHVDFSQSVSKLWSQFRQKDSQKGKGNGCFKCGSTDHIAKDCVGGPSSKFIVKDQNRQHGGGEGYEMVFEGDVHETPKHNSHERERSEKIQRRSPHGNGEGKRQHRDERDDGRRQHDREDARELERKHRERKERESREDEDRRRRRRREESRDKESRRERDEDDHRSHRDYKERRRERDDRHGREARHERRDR

Kd, 120 ± 25 nM:
GGUGCCG (ssRNA)
GUGGCCG (ssRNA)
GUCGCCG (ssRNA)
GUAGCCA (ssRNA)
GCUGCCG (ssRNA)
GAUGCCA (ssRNA)
GACGCCA (ssRNA)
GCCGCCG (ssRNA)
GUUGCCG (ssRNA)
GUAGCCG (ssRNA)
GCGGCCG (ssRNA)
GUCGCCA (ssRNA)
GCCGCCA (ssRNA)
GAUGCCG (ssRNA)
GUGGCCA (ssRNA)
GGAGCCA (ssRNA)
GCGGCCA (ssRNA)
